US8247376B2, “NGAL for reduction and amelioration of ischemic and nephrotoxic injuries” (The Trustees of Columbia University, priority 2004, dated 2012)
Entries after “also recorded” stand apart in the source; their conditions may differ. Structures can show the parent of a compound that is named as a salt.

What was measured:
[1] = test system: mouse model of ATN or ischemia/reperfusion injury; assay: Mouse model of ATN (30 min clamp, contralateral nephrectomy): plasma creatinine; assay type: in vivo, mice; conditions: for protection against ATN (creatinine, FIG. 17A): mice, 30 minutes of ischemia, 10 μg protein or single dose, 15 min prior to ischemia
Description: Male C57BL/6 mice (20-25 gr; Charles River) were anesthetized with intraperitoneal pentobarbital (50 mg/kg) and placed on a heating pad under a warming light to maintain 37© core body temperature. Kidneys were exposed through an abdominal section and the right kidney was either removed or its vascular pedicle and ureter ligated. The vascular pedicle of the left kidney or both kidneys was clamped by a microaneurysm clip (Kent Scientific) for 30 minutes after right nephrectomy. This period of ischemia generated reproducible renal injury but minimized mortality. During the procedure, PBS (0.5 ml) was used to dampen the peritoneum. The animal was closed with 5-0 Nylon. Saline, NGAL, retinol-loaded retinol binding protein (RBP), enterochelin, or desferroxamine mesylate (DFO) were injected into the peritoneum or subcutaneously 15 min. prior to ischemia or 1-2 hr after reperfusion.
After 6 or 24 hr of reperfusion, heparinized plasma, urine and kidney samples were obtained to measure NGAL (polyclonal 1:500), Heme oxygenase-1 (Stressgen, 1:2000), E-cadherin (BD Transduction Labs, 1:2000), N-cadherin (BD Transduction Labs, 1:3000) and GAPDH (Chemicon International, 1:3000) using immunoblots. Plasma was also used for creatinine and blood urea nitrogen colorimetric assays. Sagittal sections of the kidney were fixed in 4% formalin, or were snap frozen for mRNA and protein analysis. Paraffin-embedded sections (5 μm) were stained with hematoxylin-eosin or by an in situ kit (Fluorescein-TUNEL, Roche) for apoptotic nuclei or for total nuclei (Toprol, Molecular Probes). For cell proliferation analysis, BrdU was injected into the peritoneum 1 hour before sacrifice, and cryostat sections were stained with anti-BrdU (Roche) according to the manufacturer.

[2] = Cofactor-dependent ^55Fe binding to NGAL (10 kDa filter retention); conditions: for inhibition of ^55Fe capture by apo-NGAL+urine: competitor: 1000-fold unlabeled iron citrate or 50-fold iron-saturated enterochelin; for retention of ^55Fe: washed on 10 kDa filter
Description: The urine fraction was obtained by passing fresh urine sequentially through 10 kDa and 3 kDa membranes (YM-10 and YM-3, Amicon). The mixture was then washed three times on 10 kDa membrane (YM-10, Amicon). Iron-free enterochelin-loaded NGAL (rather than NGAL without siderophore) served as a positive control for iron capture. Ferric citrate (1 mM) or iron-loaded enterochelin (Sid:Fe, 50 μM) were used as competitors of ^55Fe binding.

[3] = NGAL trafficking after intraperitoneal or subcutaneous injection; assay type: in vivo, mice
Text: (§1) Recombinant human and mouse GST-NGAL were expressed in BL21 or XL1-Blue strains of E. coli (Stratagene) with additional ferric sulfate (50 Micro Molar, Sigma-Aldrich Co.). NGAL was isolated using Glutathione Sepharose 4B beads (Amersham Biosciences), eluted by thrombin cleavage (Sigma-Aldrich Co.; St. Louis, Mo.) and then further purified by gel filtration (Superdex75, SMART system, Amersham Biosciences) and examined by Coomassie gels (Biorad). BL-21 derived NGAL was loaded with iron free or iron saturated enterochelin, a siderophore (EMC Microcollections) using a 5 fold molar excess. Unbound siderophore (0.7 KD) was removed by washing (Microcon YM-10) with PBS. To produce ^55Fe or gallium (Ga) loaded NGAL we incubated the iron-free enterochelin NGAL complex with equimolar ^55Fe (18mCi) or Ga in NaCl (150 mM) Hepes (20 mM; pH 7.4) and the complex was washed 3 times (10K filter). Iodobeads (Pierce) were used to label NGAL with ^125I and unincorporated ^125I was removed by gel filtration (PD-10 column) followed by extensive dialysis (7 kDa cut off membrane, Pierce) against PBS. Alexa-568 and fluorescein isothiocyanate (Molecular Probes) was coupled to NGAL, according to the manufacturer, and then extensively dialyzed. Protein concentration was determined by Coomassie gels in comparison with bovine serum albumin standard.
(§2) To detect delivery of NGAL to the kidney rNGAL (10 or 100 μg), Alexa 568-NGAL (100 μg), ^125I-NGAL ([…], 2×10^6 cpm), or ^55Fe loaded enterochelin-NGAL (10 μg, 1×10^6 cpm) was injected into the peritoneum and blood, urine, kidney and liver samples were obtained. NGAL was detected by immunoblot. Alexa-568 NGAL was detected by confocal microscopy (LSM Meta Detector) and NGAL mediated iron trafficking was detected by scintillation counter and by light microscopic radioautography of Epon embedded kidneys. Slides were exposed to emulsion (Polyscience) for 1 week and then developed with Microdol and counterstained with Toluidine blue. To detect lysosomes in the proximal tubule, mice were injected with Fluorescein Dextran (46 kD; 0.5 mg; Sigma) 24 hours before Alexa 568 NGAL injections. LAMP1 (Santa Cruz) was detected in cryostat sections of 4% paraformaldehyde fixed kidneys.

[4] = Distribution and radioautography of ^55Fe after ^55Fe:Sid:NGAL injection; assay type: in vivo, mice; conditions: for Silver Grains (% Total): kidney radioautography; for ^55Fe recovered: one hour after 10 μg intraperitoneal
Text: as §1, §2

CC(=O)N(O)CCCCCNC(=O)CCC(=O)N(O)CCCCCNC(=O)CCC(=O)N(O)CCCCCN [DFO, desferrioxamine mesylate, reference compound]
protection against ATN (creatinine, FIG. 17A) [1]: failed to protect against ATN; also recorded: ineffective

Ferric citrate [iron citrate, reference compound]
inhibition of ^55Fe capture by apo-NGAL+urine [2]: inhibited
inhibition of ^55Fe capture by apo-NGAL+urine ([2]; listed as iron-citrate): blocked

B1: apo-NGAL: NGAL cloned in BL-21 bacteria; does not contain enterochelin (siderophore free) (protein, UniProt P80188 21-198, looked up)
Neutrophil …: QDSTSDLIPAPPLSKVPLQQNFQDNQFQGKWYVVGLAGNAILREDKDPQKMYATIYELKEDKSYNVTSVLFRKKKCDYWIRTFVPGCQPGEFTLGNIKSYPGLTSYLVRVVSTNYNQHAMVFFKKVSQNREYFKITLYGRTKELTSELKENFIRFSKSLGLPENHIVFPVPIDQCIDG
modifications: siderophore-free
protection against ATN (creatinine, FIG. 17A) [1]: minimally active
protection against ATN (creatinine, FIG. 17A) ([1]; listed as apo-Ngal): reduced level of protection
retention of ^55Fe ([2]; in buffer): failed to trap ^55Fe and not
retention of ^55Fe ([2]; with mouse urine fraction (<3,000 Da)): retains ^55Fe

B2: Alexa-568 NGAL: NGAL coupled to Alexa-568 fluorescent dye (conjugate, UniProt P11672 21-200, looked up)
Neutrophil …: QDSTQNLIPAPSLLTVPLQPDFRSDQFRGRWYVVGLAGNAVQKKTEGSFTMYSTIYELQENNSYNVTSILVRDQDQGCRYWIRTFVPSSRAGQFTLGNMHRYPQVQSYNVQVATTDYNQFAMVFFRKTSENKQYFKITLYGRTKELSPELKERFTRFAKSLGLKDDNIIFSVPTDQCIDN
modifications: Alexa-568 dye
notes: NGAL coupled to Alexa-568 fluorescent dye
localization of fluorescent NGAL in kidney ([3]; by one hour after injection): localized to large vesicles in the subapical domain of the cortical proximal tubule
NGAL vesicles also containing dextran (lysosomes) ([3]; one hour after injecting, fluorescein-dextran the day before): 33%

B3: [^125I]-NGAL: NGAL labelled with ^125I using Iodobeads (protein, UniProt P11672 21-200, looked up)
Neutrophil …: B2 Neutrophil …
modifications: 125I label
notes: NGAL labelled with ^125I using Iodobeads
TCA precipitable fraction, kidney-localized protein ([3]; kidney): 70%
kidney versus liver content per mg protein ([3]; one hour time-point): 13 fold
TCA precipitable fraction ([3]; plasma): 35%
TCA precipitable fraction ([3]; urine): 20%

B4: ^55Fe:Sid:NGAL: iron-free enterochelin-NGAL incubated with ^55Fe at 1:1 stoichiometry (protein, UniProt P80188 21-198, looked up)
Neutrophil …: B1 Neutrophil …
modifications: enterochelin loaded with 55Fe
notes: iron-free enterochelin-NGAL incubated with ^55Fe at 1:1 stoichiometry
Relative SA (% grains/% point count) ([4]; Apical MB): 2.21
Relative SA (% grains/% point count) ([4]; Basal MB): 0.59
Relative SA (% grains/% point count) ([4]; Cytosol): 1
Relative SA (% grains/% point count) ([4]; Glomerular Tuft): 0.11
Relative SA (% grains/% point count) ([4]; Interstitium): 0.3
Relative SA (% grains/% point count) ([4]; Lumen): 1.43
Relative SA (% grains/% point count) ([4]; Nucleus): 0.56
Silver Grains (% Total) ([4]; Apical MB): 12.91 % Total
Silver Grains (% Total) ([4]; Basal MB): 3.81 % Total
Silver Grains (% Total) ([4]; Cytosol): 48.98 % Total
Silver Grains (% Total) ([4]; Glomerular Tuft): 0.13 % Total
Silver Grains (% Total) ([4]; Interstitium): 3.71 % Total
Silver Grains (% Total) ([4]; Lumen): 26.46 % Total
Silver Grains (% Total) ([4]; Nucleus): 4.02 % Total
^55Fe recovered ([4]; kidney): 55%
^55Fe recovered ([4]; liver): 2.4%
^55Fe recovered ([4]; plasma): 4.3%
^55Fe recovered ([4]; spleen): 0.2%
^55Fe recovered ([4]; urine): 0.6%

B5: holo-NGAL: NGAL cloned in XL-1Blue bacteria; contains enterochelin and is iron-loaded (protein, UniProt P11672 21-200, looked up)
Neutrophil …: B2 Neutrophil …
modifications: enterochelin, iron-loaded
notes: NGAL cloned in XL-1Blue bacteria; contains enterochelin and is iron-loaded
protection against ATN (creatinine, FIG. 17A) [1]: rescues renal function
protection against ATN (creatinine, FIG. 17A) ([1]; listed as holo-Ngal): protected the kidney

B6: apo-NGAL:Sid: BL-21-cloned NGAL reconstituted with iron-free enterochelin (protein, UniProt P80188 21-198, looked up)
Neutrophil …: B1 Neutrophil …
modifications: complexed with iron-free enterochelin
notes: BL-21-cloned NGAL reconstituted with iron-free enterochelin
protection against ATN (creatinine, FIG. 17A) [1]: protective effect
protection against ATN (creatinine, FIG. 17A) ([1]; listed as apo-Ngal:Sid): enhanced the protection of the kidney and blunted the rise in serum creatinine
retention of ^55Fe ([2]; in buffer): retained

B7: apo-NGAL:Sid:Fe: BL-21-cloned NGAL reconstituted with iron-saturated enterochelin (protein, UniProt P11672 21-200, looked up)
Neutrophil …: B2 Neutrophil …
modifications: iron-saturated enterochelin
notes: BL-21-cloned NGAL reconstituted with iron-saturated enterochelin
protection against ATN (creatinine, FIG. 17A) [1]: protective effect
protection against ATN (creatinine, FIG. 17A) ([1]; listed as apo-Ngal:Sid:Fe): enhanced the protection of the kidney and blunted the rise in serum creatinine
retention of ^55Fe ([2]; in buffer): not

B8: apo-NGAL:Sid:Ga: gallium-loaded enterochelin-NGAL complex (protein, UniProt P80188 21-198, looked up)
Neutrophil …: B1 Neutrophil …
modifications: enterochelin loaded with gallium
notes: gallium-loaded enterochelin-NGAL complex
creatinine ([1]; gallium complex 15 minutes prior to ischemia): 3.17±0.1
protection against ATN (creatinine, FIG. 17A) [1]: ineffective
protection against ATN (creatinine, FIG. 17A) ([1]; listed as apo-Ngal:Sid:Ga): not protected
